IC50 data for 18 sequences are collected here from the Immune Epitope Database (IEDB).

pIC50: −log10 of the molar value. Bounds are passed on as bounds.

For one test, the target named is HLA-A*02:01. The experiment in a line: IEDB peptide-MHC binding, purified MHC/competitive/radioactivity; ≥ and ≤ were set here for values at or beyond the usual limits of such assays. The note with it: source organism: Bordetella pertussis.
Turning to EGKMESNKD, the pIC50 was at most 4.11.
In the case of KLLHHILPI, the negative-log IC50 (pIC50) is 6.51.
Regarding RKMLYLIYV, the pIC50 was 5.26.
On the same count and under the same terms, under SLFAILSST stands 5.85.

The target of a further test is HLA-B*07:02. The description is as above. The note with it: source organism: Bordetella pertussis.
With ARRSRVRAL, the negative-log IC50 (pIC50) is 4.80.
For the sequence NPYTSRRSV, the negative-log IC50 (pIC50) is 6.56.
With TVLAAGAGL, the pIC50 is 4.16.

For the next test, the target named is HLA-B*35:01. Described as above. The note with it: source organism: Bordetella pertussis.
Take ADDPPATVY: the pIC50 was 4.16.
With DPPATVYRY, the pIC50 was 5.14.
As for EPVKLTLTG, the pIC50 is 4.86.
For EVRADNNFY, the pIC50 was 4.59.
On the same count and under the same terms, under PKPKPKPKP stands 4.19.

Another test has as its target HLA-B*44:03. The description is as above. The conditions noted are these: source organism: Bordetella pertussis.
As to PGPQPPQPQ, the negative logarithm of the IC50 (pIC50) is 4.31.
On the same count and under the same terms, under TEVYLEHRM stands 5.57.

A further test has as its target HLA-B*53:01. Described as above. The note with it: source organism: Bordetella pertussis.
Take DPPATVYRY: the pIC50 is 4.28.

The target in the next test is HLA-B*57:01. The description is as above. The note with it: source organism: Bordetella pertussis.
Take KQADRDFVW: the pIC50 was 4.95.
On the same count and under the same terms, under LSGEVQRKG stands at most 4.15; under RVRALSWLL, 5.67.
The same measure, in the same setting: under TSRRSVASI stands 5.34.
